Test results reported in paper PMC5261807 (2017).
Non-standard residues stand in square brackets, D forms with d. No end group written: not given here. Arg(Me2a) = CN(C)C(=N)NCCC[C@H](N)C(=O)O; Lys(Me3) = C[N+](C)(C)CCCC[C@H](N)C(=O)O; Arg(Me2s) = CN=C(NC)NCCC[C@H](N)C(=O)O; pT = C[C@@H](OP(=O)(O)O)[C@H](N)C(=O)O; Lys(Me2) = CN(C)CCCC[C@H](N)C(=O)O; pS = N[C@@H](COP(=O)(O)O)C(=O)O; Lys(Me) = CNCCCC[C@H](N)C(=O)O

T1: Bdf1 bromodomain 2 (GST-tagged, WT) (Saccharomyces cerevisiae (strain ATCC …, UniProt P35817))
T1 chain: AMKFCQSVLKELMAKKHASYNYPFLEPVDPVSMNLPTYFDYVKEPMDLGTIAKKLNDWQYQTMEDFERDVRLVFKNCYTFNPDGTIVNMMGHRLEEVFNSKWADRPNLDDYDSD

T2: Bdf1 bromodomain 1 (GST-tagged, WT) (Saccharomyces cerevisiae (strain ATCC …, UniProt P35817))
T2 chain: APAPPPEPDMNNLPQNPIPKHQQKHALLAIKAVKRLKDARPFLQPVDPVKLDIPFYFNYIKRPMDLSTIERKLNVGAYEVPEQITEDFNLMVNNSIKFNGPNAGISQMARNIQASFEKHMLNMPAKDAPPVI


Key:
[1] = target: T1, Bdf1 bromodomain 2 (GST-tagged, WT); test: histone peptide array probed with recombinant GST-bromodomain, signal normalised to myc peptide control
[2] = target: T2, Bdf1 bromodomain 1 (GST-tagged, WT); test: as above

| binding score [1] | binding score [2] | Binder |
| --- | --- | --- |
| 0 | 0.00502 | ARTKQTARKSTGGKAPRKQ (A Rme2s T Kme1 Q T A Rme2a Kme2 S T G G K A P R K Q) |
| 0 | 0.00161 | A[Arg(Me2a)]T[Lys(Me2)]QTARKSTGGKAPRKQ |
| 0.0127 | 0.0142 | ARTKQTARKSTGGKAPRKQ (A R T Kme3 Q T A Rme2a Kac S T G G K A P R K Q) |
| 0.00915 | 0.0255 | ARTKQTARKSTGGKAPRKQ (A Rme2a T Kac Q T A R Kme2 S T G G K A P R K Q) |
| 0.00817 | 0 | [pS]GRGKQGGK(Ac)ARAKAKSRSS |
| 0.00108 | 0.00681 | ARTKQTARKSTGGKAPRKQ (A Rme2s T Kme3 Q T A Rme2a Kme3 S T G G K A P R K Q) |
| 0.00344 | 0.00323 | A[Arg(Me2s)][pT][Lys(Me)]QTARKSTGGKAPRKQ |
| 0.0261 | 0.0181 | ARTKQTARKSTGGKAPRKQ (A Rme2a T Kme3 Q T A Rme2s Kac S T G G K A P R K Q) |
| 0 | 0 | ARTKQTARKSTGGKAPRKQ (A R T Kme2 Q T A Rme2a Kme3 S T G G K A P R K Q) |
| 0.00895 | 0.00538 | ARTKQTARKSTGGKAPRKQ (A Rme2s pT Kme3 Q T A R K S T G G K A P R K Q) |
| 0.0674 | 0.00753 | SGRGKGGKGLGKGGAKRHR (pS G Rme2a G Kac G G K G L G K G G A K R H R) |
| 0 | 0 | PRKQLATKAARK(Ac)[pS]APATGG |
| 0.00403 | 0.00484 | ARTKQTARKSTGGKAPRKQ (A R T K Q T A Rme2s Kac pS T G G K A P R K Q) |
| 0.00443 | 0.0134 | ARTKQTARKSTGGKAPRKQ (A Rme2s T Kme1 Q T A Rme2s Kme1 S T G G K A P R K Q) |
| 0.0652 | 0 | SGRGKGGKGLGKGGAKRHR (S G Rme2s G Kac G G K G L G K G G A K R H R) |
| 0 | 0.00502 | PDPAK(Ac)SAPAPKKGSKKAVT |
| 0.00462 | 0.00628 | ARTKQTARKSTGGKAPRKQ (A Rme2s T Kme1 Q T A Rme2a Kac S T G G K A P R K Q) |
| 0.142 | 0.0142 | PDPAKSAPAPKKG[pS]K(Ac)KAVT |
| 0.00443 | 0.00341 | ARTKQTARKSTGGKAPRKQ (A Rme2a T Kme1 Q T A Rme2a K S T G G K A P R K Q) |
| 0.0125 | 0.00484 | [pS]GRGKQGGKARAK(Ac)AKSRSS |
| 0 | 0.00412 | ARTKQTARKSTGGKAPRKQ (A Rme2s T Kac Q T A R Kme3 S T G G K A P R K Q) |
| 0.00738 | 0.00699 | ARTKQTARKSTGGKAPRKQ (A R T Kme1 Q T A Rme2a Kme2 S T G G K A P R K Q) |
| 0 | 0.0043 | ARTKQTA[Arg(Me2a)]K(Ac)S[pT]GGKAPRKQ |
| 0.0393 | 0 | PRKQLATKAA[Arg(Me2a)]K(Ac)SAPATGG |
| 0 | 0 | SGRGKGGKGLGKGGAKRHR (pS G Rme2a G K G G K G L G K G G A K R H R) |
| 0 | 0.0061 | PRKQLATKAA[Arg(Me2s)]K(Ac)[pS]APATGG |

| binding score [1] | binding score [2] | Binder |
| --- | --- | --- |
| 0.0459 | 0 | SGRGK(Ac)QGGKARAKAKSRSS |
| 0 | 0 | ARTKQTARKSTGGKAPRKQ (A Rme2a T Kme1 Q T A Rme2a Kme1 S T G G K A P R K Q) |
| 0.141 | 0.0332 | SGRGK(Ac)QGGK(Ac)ARAKAKSRSS |
| 0.081 | 0.00843 | PRKQLATKAA[Arg(Me2s)]K(Ac)SAPATGG |
| 0 | 5.8e-17 | PRKQLATKAA[Arg(Me2s)][Lys(Me3)]SAPATGG |
| 0.00541 | 0.0102 | ARTKQTARKSTGGKAPRKQ (A Rme2a T Kme3 Q T A Rme2a K S T G G K A P R K Q) |
| 0.00836 | 0.0145 | A[Arg(Me2s)]TK(Ac)QTA[Arg(Me2a)][Lys(Me3)]STGGKAPRKQ |
| 0 | 0.0154 | ARTKQTARKSTGGKAPRKQ (A R T Kme1 Q T A Rme2a Kme1 S T G G K A P R K Q) |
| 0 | 0.0328 | ARTKQTARKSTGGKAPRKQ (A R T Kac Q T A Rme2a Kme3 S T G G K A P R K Q) |
| 0 | 0 | ARTKQTARKSTGGKAPRKQ (A Rme2a T Kme3 Q T A Rme2a Kme2 S T G G K A P R K Q) |
| 0 | 0.00861 | ARTKQTARKSTGGKAPRKQ (A Rme2s T Kme3 Q T A Rme2s K S T G G K A P R K Q) |
| 0.000295 | 0 | ARTKQTARKSTGGKAPRKQ (A Rme2s T Kme1 Q T A R Kme3 S T G G K A P R K Q) |
| 0.00561 | 0 | ARTKQTARKSTGGKAPRKQ (A R T K Q T A Rme2s Kme3 S pT G G K A P R K Q) |
| 0 | 0.0111 | A[Arg(Me2s)]TKQTARKSTGGKAPRKQ |
| 0 | 0.00179 | ARTKQTARKSTGGKAPRKQ (A R T Kme1 Q T A Rme2a Kme3 S T G G K A P R K Q) |
| 0 | 0.000717 | ART[Lys(Me2)]QTA[Arg(Me2a)][Lys(Me)]STGGKAPRKQ |
| 0 | 0 | PRKQLATKAA[Arg(Me2s)][Lys(Me)]SAPATGG |
| 0 | 0.0163 | ARTKQTARKSTGGKAPRKQ (A Rme2a T Kme2 Q T A Rme2s Kme1 S T G G K A P R K Q) |
| 0.00679 | 0.0118 | ARTKQTA[Arg(Me2s)]K(Ac)S[pT]GGKAPRKQ |
| 0 | 0.00897 | A[Arg(Me2a)]TK(Ac)QTA[Arg(Me2a)][Lys(Me)]STGGKAPRKQ |
| 0.107 | 0.00968 | SGRGKGGKGLGKGGAKRHR (pS G Rme2s G Kac G G K G L G K G G A K R H R) |
| 0.00679 | 0.00269 | ARTKQTARKSTGGKAPRKQ (A R T K Q T A R Kme2 S T G G K A P R K Q) |
| 0 | 0.00825 | PDPAKSAPAPKKGSK(Ac)KAVT |
| 0 | 0.00663 | PDPAK(Ac)SAPAPKK(Ac)G[pS]KKAVT |
| 0 | 0.00448 | A[Arg(Me2a)]T[Lys(Me)]QTA[Arg(Me2s)][Lys(Me2)]STGGKAPRKQ |
